Source: publication PMC4653696

Columns and labels:
Test in all cases: FRET or BRET; 25 nM donor (AF555)-labelled octamers titrated with acceptor (AF647)-labelled octamers, serial dilutions from 100 nM; 45 mM KCl, 50 mM Tris-HCl pH 8.0; room temperature, 1 h equilibration; triplicate; PCA and curve fit; apparent Kd of end-to-end association of rods
[1] = target: Cdc11(E294C)-capped, otherwise Cys-less septin hetero-octamer (Cdc11-Cdc12-Cdc3-Cdc10-Cdc10-Cdc3-Cdc12-Cdc11) (S. cerevisiae) (UniProt P32458)
Chain of Cdc11(E294C)-capped, otherwise Cys-less septin hetero-octamer (Cdc11-Cdc12-Cdc3-Cdc10-Cdc10-Cdc3-Cdc12-Cdc11) (S. cerevisiae) (P32458 whole entry C43F/C137A/C138A/E294C, chain 1 of 4): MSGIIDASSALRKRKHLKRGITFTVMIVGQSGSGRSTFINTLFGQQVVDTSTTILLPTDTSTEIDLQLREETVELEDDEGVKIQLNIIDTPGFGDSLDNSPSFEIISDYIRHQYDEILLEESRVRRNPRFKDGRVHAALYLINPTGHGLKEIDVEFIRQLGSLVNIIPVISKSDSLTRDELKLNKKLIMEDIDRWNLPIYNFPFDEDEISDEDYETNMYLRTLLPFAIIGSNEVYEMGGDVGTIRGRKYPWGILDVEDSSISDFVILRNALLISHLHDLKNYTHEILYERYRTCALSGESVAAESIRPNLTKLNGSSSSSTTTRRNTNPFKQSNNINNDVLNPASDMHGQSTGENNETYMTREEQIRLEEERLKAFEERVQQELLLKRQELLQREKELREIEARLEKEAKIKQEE
Chain of Cdc11(E294C)-capped, otherwise Cys-less septin hetero-octamer (Cdc11-Cdc12-Cdc3-Cdc10-Cdc10-Cdc3-Cdc12-Cdc11) (S. cerevisiae) (P32468 whole entry C40A/C278S, chain 2 of 4, further chain): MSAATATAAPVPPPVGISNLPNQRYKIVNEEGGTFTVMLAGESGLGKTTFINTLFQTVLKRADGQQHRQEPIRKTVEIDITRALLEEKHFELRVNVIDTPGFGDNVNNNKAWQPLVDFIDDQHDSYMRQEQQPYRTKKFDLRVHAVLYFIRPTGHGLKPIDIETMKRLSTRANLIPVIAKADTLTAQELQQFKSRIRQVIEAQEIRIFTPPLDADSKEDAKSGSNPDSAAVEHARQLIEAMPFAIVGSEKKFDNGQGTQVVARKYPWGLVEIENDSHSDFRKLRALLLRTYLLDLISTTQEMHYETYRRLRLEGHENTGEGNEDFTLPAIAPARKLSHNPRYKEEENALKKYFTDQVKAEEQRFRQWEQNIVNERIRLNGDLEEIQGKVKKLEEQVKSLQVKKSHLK
Chain of Cdc11(E294C)-capped, otherwise Cys-less septin hetero-octamer (Cdc11-Cdc12-Cdc3-Cdc10-Cdc10-Cdc3-Cdc12-Cdc11) (S. cerevisiae) (P32457 other isoform, or with tags, fused parts or gaps E294C, chain 3 of 4, further chain): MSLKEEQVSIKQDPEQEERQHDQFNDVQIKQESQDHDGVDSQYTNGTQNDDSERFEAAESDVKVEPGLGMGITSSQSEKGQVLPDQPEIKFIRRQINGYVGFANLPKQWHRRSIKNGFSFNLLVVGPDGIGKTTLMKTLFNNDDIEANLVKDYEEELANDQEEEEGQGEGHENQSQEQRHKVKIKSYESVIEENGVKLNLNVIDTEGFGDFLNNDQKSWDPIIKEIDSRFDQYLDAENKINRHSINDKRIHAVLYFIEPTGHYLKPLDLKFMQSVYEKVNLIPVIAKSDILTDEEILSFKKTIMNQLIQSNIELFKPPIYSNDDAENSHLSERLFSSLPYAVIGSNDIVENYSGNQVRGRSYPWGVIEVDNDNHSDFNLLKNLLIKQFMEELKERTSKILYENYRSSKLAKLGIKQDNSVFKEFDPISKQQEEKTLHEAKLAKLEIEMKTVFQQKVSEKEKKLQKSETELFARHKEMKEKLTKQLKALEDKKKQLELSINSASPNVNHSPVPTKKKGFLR
Chain of Cdc11(E294C)-capped, otherwise Cys-less septin hetero-octamer (Cdc11-Cdc12-Cdc3-Cdc10-Cdc10-Cdc3-Cdc12-Cdc11) (S. cerevisiae) (P25342 whole entry C266S, chain 4 of 4, further chain): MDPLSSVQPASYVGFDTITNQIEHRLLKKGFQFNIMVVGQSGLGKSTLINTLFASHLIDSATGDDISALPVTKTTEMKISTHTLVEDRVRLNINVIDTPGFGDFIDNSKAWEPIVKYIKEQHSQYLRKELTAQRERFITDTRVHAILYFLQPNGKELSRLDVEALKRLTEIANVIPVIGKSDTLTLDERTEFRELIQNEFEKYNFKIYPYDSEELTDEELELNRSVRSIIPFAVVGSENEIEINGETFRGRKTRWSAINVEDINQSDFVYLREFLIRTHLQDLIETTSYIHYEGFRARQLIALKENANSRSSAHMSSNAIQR

[2] = target: Cdc11(E294C ΔCTE)-capped, otherwise Cys-less septin hetero-octamer (S. cerevisiae) (UniProt P32458)
[3] = target: Shs1(E344C)-capped, otherwise Cys-less septin hetero-octamer (Shs1-Cdc12-Cdc3-Cdc10-Cdc10-Cdc3-Cdc12-Shs1) (S. cerevisiae) (UniProt Q07657)
Chain of Shs1(E344C)-capped, otherwise Cys-less septin hetero-octamer (Shs1-Cdc12-Cdc3-Cdc10-Cdc10-Cdc3-Cdc12-Shs1) (S. cerevisiae) (Q07657 whole entry C29V/C148S/E344C, chain 1 of 4): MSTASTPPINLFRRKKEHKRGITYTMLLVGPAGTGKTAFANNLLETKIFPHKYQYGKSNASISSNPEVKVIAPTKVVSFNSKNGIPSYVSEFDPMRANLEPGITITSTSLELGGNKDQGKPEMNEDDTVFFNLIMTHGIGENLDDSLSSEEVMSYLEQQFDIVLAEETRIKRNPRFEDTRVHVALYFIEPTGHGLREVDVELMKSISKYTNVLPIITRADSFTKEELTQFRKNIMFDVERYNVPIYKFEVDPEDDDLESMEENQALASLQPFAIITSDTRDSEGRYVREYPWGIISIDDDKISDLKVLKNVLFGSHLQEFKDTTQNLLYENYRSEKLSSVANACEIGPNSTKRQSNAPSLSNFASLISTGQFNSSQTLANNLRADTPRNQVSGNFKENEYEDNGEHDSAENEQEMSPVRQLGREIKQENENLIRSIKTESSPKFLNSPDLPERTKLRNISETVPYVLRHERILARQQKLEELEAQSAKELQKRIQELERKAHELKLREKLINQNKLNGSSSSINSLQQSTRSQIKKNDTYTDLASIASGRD
Chain of Shs1(E344C)-capped, otherwise Cys-less septin hetero-octamer (Shs1-Cdc12-Cdc3-Cdc10-Cdc10-Cdc3-Cdc12-Shs1) (S. cerevisiae) (P32468 whole entry C40A/C278S, chain 2 of 4, further chain): as the sequence (P32468 whole entry C40A/C278S, chain 2 of 4, further chain) above
Chain of Shs1(E344C)-capped, otherwise Cys-less septin hetero-octamer (Shs1-Cdc12-Cdc3-Cdc10-Cdc10-Cdc3-Cdc12-Shs1) (S. cerevisiae) (P32457 other isoform, or with tags, fused parts or gaps E344C, chain 3 of 4, further chain): as the sequence (P32457 other isoform, or with tags, fused parts or gaps E294C, chain 3 of 4, further chain) above
Chain of Shs1(E344C)-capped, otherwise Cys-less septin hetero-octamer (Shs1-Cdc12-Cdc3-Cdc10-Cdc10-Cdc3-Cdc12-Shs1) (S. cerevisiae) (P25342 whole entry C266S, chain 4 of 4, further chain): as the sequence (P25342 whole entry C266S, chain 4 of 4, further chain) above

[4] = target: Shs1(E344C ΔCTE)-capped, otherwise Cys-less septin hetero-octamer (S. cerevisiae) (UniProt Q07657)
Chain of Shs1(E344C ΔCTE)-capped, otherwise Cys-less septin hetero-octamer (S. cerevisiae) (Q07657 1-348 C29V/C148S/E344C, chain 1 of 4): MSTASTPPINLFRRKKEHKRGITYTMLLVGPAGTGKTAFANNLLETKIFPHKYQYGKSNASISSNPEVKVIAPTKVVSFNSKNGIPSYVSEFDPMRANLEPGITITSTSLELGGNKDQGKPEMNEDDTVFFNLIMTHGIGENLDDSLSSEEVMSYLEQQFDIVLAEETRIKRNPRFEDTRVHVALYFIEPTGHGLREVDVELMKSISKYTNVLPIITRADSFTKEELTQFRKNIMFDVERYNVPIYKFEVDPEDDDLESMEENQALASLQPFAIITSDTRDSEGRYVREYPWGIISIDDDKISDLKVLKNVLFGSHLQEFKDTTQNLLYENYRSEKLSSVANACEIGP
Chain of Shs1(E344C ΔCTE)-capped, otherwise Cys-less septin hetero-octamer (S. cerevisiae) (P32468 whole entry C40A/C278S, chain 2 of 4, further chain): as the sequence (P32468 whole entry C40A/C278S, chain 2 of 4, further chain) above
Chain of Shs1(E344C ΔCTE)-capped, otherwise Cys-less septin hetero-octamer (S. cerevisiae) (P32457 other isoform, or with tags, fused parts or gaps E344C, chain 3 of 4, further chain): as the sequence (P32457 other isoform, or with tags, fused parts or gaps E294C, chain 3 of 4, further chain) above
Chain of Shs1(E344C ΔCTE)-capped, otherwise Cys-less septin hetero-octamer (S. cerevisiae) (P25342 whole entry C266S, chain 4 of 4, further chain): as the sequence (P25342 whole entry C266S, chain 4 of 4, further chain) above

Cdc11(E294C ΔCTE)-capped, otherwise Cys-less septin hetero-octamer (from UniProt P32458 1-305; P32468 1-407; P32457 1-520; P25342 1-322) (complex)
Kd [1]: 0.0241 µM
Kd [2]: 0.0177 µM
Kd [3]: 0.0222 µM
Kd [4]: 0.0228 µM
